What all share (conditions): both partners purified
Assay [1] deals with T1, MBP-KPNA7(P339A) (human, UniProt A9QM74 1-516, P339A).
T1 construct: Substitution found in epilepsy patients (occurs in nature); also called KPNA7 mutant P339A; P339A KPNA7; source: E. coli BL21, purified (amylose resin, eluted with maltose, dialyzed)
The assay can be described thus: pull-down; MBP fusion proteins on amylose resin (1 μg/μl), GST-GFP-NLS constructs in solution (250 nM or indicated concentrations) with Imp-β (250 nM); 2 hrs at 4 °C, 20 mM Tris pH 8, 200 mM NaCl, 1 mM EDTA, 1 mM DTT, 0.05% Triton X-100; western blot. Background: A western blot detects proteins with antibodies after separation by electrophoresis.

The target in assay [2] is T2, MBP-KPNA7(E344Q) (human, UniProt A9QM74 1-516, E344Q).
T2 construct: Substitution found in epilepsy patients (occurs in nature); also called KPNA7 mutant E344Q; E344Q KPNA7; source: E. coli BL21, purified (amylose resin, eluted with maltose, dialyzed)
The description is as above.

Assay [3] deals with T3, MBP-KPNA7 (wild type) (human, UniProt A9QM74 1-516).
T3 construct: also called WT KPNA7; MBP-KPNA7 WT; source: E. coli BL21, purified (amylose resin, eluted with maltose, dialyzed)
Briefly: pull-down; bead binding assay with a range of GST-GFP-hnRNP R-bNLS concentrations (10 nM to 2.7 μM) on KPNA7 proteins; binding curve, apparent KD.

The target in assay [4] is T2, MBP-KPNA7(E344Q). Described as above.

T2 sequence (A9QM74 whole entry E344Q): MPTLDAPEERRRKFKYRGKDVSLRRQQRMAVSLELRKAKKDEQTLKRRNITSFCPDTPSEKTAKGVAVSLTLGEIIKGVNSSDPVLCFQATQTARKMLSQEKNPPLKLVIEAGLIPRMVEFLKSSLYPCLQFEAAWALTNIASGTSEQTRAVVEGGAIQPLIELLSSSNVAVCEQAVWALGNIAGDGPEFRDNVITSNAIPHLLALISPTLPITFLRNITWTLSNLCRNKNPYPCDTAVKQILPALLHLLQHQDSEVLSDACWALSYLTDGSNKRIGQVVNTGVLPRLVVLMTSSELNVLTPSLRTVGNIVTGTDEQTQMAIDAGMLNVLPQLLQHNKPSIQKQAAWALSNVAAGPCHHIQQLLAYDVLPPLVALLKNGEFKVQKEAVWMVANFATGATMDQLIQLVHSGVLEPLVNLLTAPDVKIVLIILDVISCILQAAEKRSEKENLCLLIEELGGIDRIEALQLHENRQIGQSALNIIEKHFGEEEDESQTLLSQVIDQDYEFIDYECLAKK
T3 sequence (A9QM74 whole entry): as the sequence (A9QM74 whole entry E344Q) above, with Q344E counted along it
T1 sequence (A9QM74 whole entry P339A): as the sequence (A9QM74 whole entry E344Q) above, with P339A, Q344E counted along it

B1: GST-GFP-hnRNP R bipartite NLS (domain or fragment, UniProt O43390 565-589, looked up)
chain: RGGNVGGKRKADGYNQPDSKRRQTN
notes: hnRNP R, bipartite NLS (bNLS, a.a. 565-589), cloned into pGEX-4T1-GFP; The limits are those that the text gives for the NLS; also called hnRNP R bNLS; hnRNP R-bNLS; source: E. coli BL21, purified (glutathione resin)
In the case of B1, the binding result in assay [1] is given as “binds”. Moreover, in assay [2], the “fold less binding than WT KPNA7” value was around 10 fold. For the same molecule, the Kd was around 123 nM in assay [3] and around 223 nM in assay [4].

The record behind these values is paper PMC7076015, “An epilepsy-associated mutation in the nuclear import receptor KPNA7 reduces nuclear localization signal binding” (Scientific Reports, 2020).
